{"source": "patent US10772928B2", "about": "“Modulation and detection of a neuronal alternative splicing regulatory network for treatment and diagnosis of neurological disorders” (The Governing Council of the University of Toronto, priority 2014, dated 2020)", "molecules": {"B1": {"name": "Tpi1 (protein, UniProt P17751 2-249, looked up)", "Triosephosphate isomerase": "APTRKFFVGGNWKMNGRKKCLGELICTLNAANVPAGTEVVCAPPTAYIDFARQKLDPKIAVAAQNCYKVTNGAFTGEISPGMIKDLGATWVVLGHSERRHVFGESDELIGQKVSHALAEGLGVIACIGEKLDEREAGITEKVVFEQTKVIADNVKDWSKVVLAYEPVWAIGTGKTATPQQAQEVHEKLRGWLKSNVNDGVAQSTRIIYGGSVTGATCKELASQPDVDGFLVGGASLKPEFVDIINAKQ"}, "B2": {"name": "Csnk1e (protein, UniProt Q9JMK2 1-416, looked up)", "Casein kinase I isoform …": "MELRVGNKYRLGRKIGSGSFGDIYLGANIASGEEVAIKLECVKTKHPQLHIESKFYKMMQGGVGIPSIKWCGAEGDYNVMVMELLGPSLEDLFNFCSRKFSLKTVLLLADQMISRIEYIHSKNFIHRDVKPDNFLMGLGKKGNLVYIIDFGLAKKYRDARTHQHIPYRENKNLTGTARYASINTHLGIEQSRRDDLESLGYVLMYFNLGSLPWQGLKAATKRQKYERISEKKMSTPIEVLCKGYPSEFSTYLNFCRSLRFDDKPDYSYLRQLFRNLFHRQGFSYDYVFDWNMLKFGAARNPEDVDRERREHEREERMGQLRGSATRALPPGPPTGATANRLRSAAEPVASTPASRIQQTGNTSPRAISRADRERKVSMRLHRGAPANVSSSDLTGRQEVSRLAASQTSVPFDHLGK"}, "B3": {"name": "Cdk11b (protein, UniProt P24788 1-784, looked up)", "Cyclin-dependent kinase 11B": "MGDEKDSWKVKTLDEILQEKKRRKEQEEKAEIKRLKNSDDRDSKRDSLEEGELRDHRMEITIRNSPYRREDSMEDRGEEDDSLAIKPPQQMSRKEKAHHRKDEKRKEKRRHRSHSAEGGKHARVKEKEREHERRKRHREEQDKARREWERQKRREMAREHSRRERDRLEQLERKRERERKLREQQKEQREQKERERRAEERRKEREARREVSAHHRTMREEYSDKGKVGHWSRSPLRPPRERFEMGDNRKPVKEEKVEERDLLSDLQDISDSERKTSSAESSSAESGSGSEEEEEEEEEEEEEEGSTSEESEEEEEEEEEEEEEETGSNSEEASEQSAEEVSDEEMSEDEDRENENHILVVPESRFDRDSGDSEEGEEEVGEGTPQSSAPTEGDYVPDSPALSPIELKQELPKYLPALQGCRSVEEFQCLNRIEEGTYGVVYRAKDKKTDEIVALKRLKMEKEKEGFPITSLREINTILKAQHPNIVTVREIVVGSNMDKIYIVMNYVEHDLKSLMETMKQPFLPGEVKTLMIQLLSGVKHLHDNWILHRDLKTSNLLLSHAGILKVGDFGLAREYGSPLKAYTPVVVTLWYRAPELLLGAKEYSTAVDMWSVGCIFGELLTQKPLFPGKSDIDQINKIFKDLGTPSEKIWPGYNDLPAVKKMTFSEYPYNNLRKRFGALLSDQGFDLMNKFLTYYPGRRINAEDGLKHEYFRETPLPIDPSMFPTWPAKSEQQRVKRGTSPRPPEGGLGYSQLGDDDLKETGFHLTTTNQGASAAGPGFSLKF"}, "B4": {"name": "Tfip11 (protein, UniProt Q9ERA6 1-838, looked up)", "Tuftelin-interacting protein …": "MSLSHLYRDGEGHLDDDDDDERENFEITDWDLQNEFNPNRQRHWQTKEEATYGVWAERDSDEERPSFGGKRARDYSAPVNFISAGLKKGAAEEADSEDSDAEEKPVKQEDFPKDLGPKKLKTGGNFKPSQKGFSGGTKSFMDFGSWERHTKGIGQKLLQKMGYVPGRGLGKNAQGIINPIEAKQRKGKGAVGAYGSERTTQSLQDFPVADSEEEAEEEFQKELSQWRKDPSGSKKKPKYSYKTVEELKAKGRVSKKLTAPQKELSQVKVIDMTGREQKVYYSYSQISHKHSVPDEGVPLLAQLPPTAGKEARMPGFALPELEHNLQLLIERTEQEIIQSDRQLQYERDMVVSLSHELEKTAEVLAHEERVISNLSKVLALVEECERRMQPHGADPLTLDECARIFETLQDKYYEEYRLADRADLAVAIVYPLVKDYFKDWHPLEDGSYGTQIISKWKSLLENDQLLSHSSQDLSSDAFHRLMWEVWMPFVRNVVAQWQPRNCEPMVDFLDSWAHIIPVWILDNILDQLIFPKLQKEVDNWNPLTDTVPIHSWIHPWLPLMQARLEPLYSPVRSKLSSALQKWHPSDASAKLILQPWKEVLTPGSWEAFMLRNIVPKLGMCLGELVINPHQQHMDAFYWVMDWEGMISVSSLVGLLEKHFFPKWLQVLCSWLSNSPNYEEITKWYLGWKSMFSDQVLAHPSVKDKFNEALDIMNRAVSSNVGAYMQPGARENIAYLTHTERRKDFQYEAMQERREAENMAQRGIGVAASSVPMNFKDLIETKAEEHNIVFMPVIGKRHEGKQLYTFGRIVIYIDRGVVFVQGEKTWVPTSLQSLIDMAK"}, "B5": {"name": "Cyfip1 (protein, UniProt Q7TMB8 1-1253, looked up)", "Cytoplasmic FMR1-interacting …": "MAAQVTLEDALSNVDLLEELPLPDQQPCIEPPPSSLLYQPNFNTNFEDRNAFVTGIARYIEQATVHSSMNEMLEEGQEYAVMLYTWRSCSRAIPQVKCNEQPNRVEIYEKTVEVLEPEVTKLMNFMYFQRNAIERFCGEVRRLCHAERRKDFVSEAYLITLGKFINMFAVLDELKNMKCSVKNDHSAYKRAAQFLRKMADPQSIQESQNLSMFLANHNKITQSLQQQLEVISGYEELLADIVNLCVDYYENRMYLTPSEKHMLLKVMGFGLYLMDGSVSNIYKLDAKKRINLSKIDKYFKQLQVVPLFGDMQIELARYIKTSAHYEENKSRWTCASSSSSPQYNICEQMIQIREDHMRFISELARYSNSEVVTGSGRQEAQKTDAEYRKLFDLALQGLQLLSQWSAHVMEVYSWKLVHPTDKYSNKDCPDNAEEYERATRYNYTTEEKFALVEVIAMIKGLQVLMGRMESVFNHAIRHTVYAALQDFSQVTLREPLRQAIKKKKNVIQSVLQAIRKTVCDWETGHEPFNDPALRGEKDPKSGFDIKVPRRAVGPSSTQLYMVRTMLESLIADKSGSKKTLRSSLEGPTILDIEKFHRESFFYTHLINFSETLQQCCDLSQLWFREFFLELTMGRRIQFPIEMSMPWILTDHILETKEASMMEYVLYSLDLYNDSAHYALTKFNKQFLYDEIEAEVNLCFDQFVYKLADQIFAYYKVMAGSLLLDKRLRSECKNQGATIHLPPSNRYETLLKQRHVQLLGRSIDLNRLITQRVSAAMYKSLELAIGRFESEDLTSVVELDGLLEINRMTHKLLSRYLTLDSFDAMFREANHNVSAPYGRITLHVFWELNYDFLPNYCYNGSTNRFVRTVLPFSQEFQRDKQPNAQPQYLHGSKALNLAYSSIYGSYRNFVGPPHFQVICRLLGYQGIAVVMEELLKVVKSLLQGTILQYVKTLMEVMPKICRLPRHEYGSPGILEFFHHQLKDIVEYAELKTVCFQNLREVGNAVLFCLLIEQSLSLEEVCDLLHAAPFQNILPRIHVKEGERVDAKMKRLESKYAPLHLVPLIERLGTPQQIAIAREGDLLTKERLCCGLSMFEVILTRIRTFLDDPIWRGPLPSNGVMHVDECVEFHRLWSAMQFVYCIPVGTHEFTVEQCFGDGLHWAGCMIIVLLGQQRRFAVLDFCYHLLKVQKHDGKDEIIKNVPLKKMVERIRKFQILNDEIITILDKYLKSGDGESTPVEHVRCFQPPIHQSLASS"}}, "biological_target": "T1, nSR100 (Mus musculus, UniProt Q8BKA3)", "T1 construct": "host or cells: mouse N2A cells", "T1 sequence (Q8BKA3 1-608)": "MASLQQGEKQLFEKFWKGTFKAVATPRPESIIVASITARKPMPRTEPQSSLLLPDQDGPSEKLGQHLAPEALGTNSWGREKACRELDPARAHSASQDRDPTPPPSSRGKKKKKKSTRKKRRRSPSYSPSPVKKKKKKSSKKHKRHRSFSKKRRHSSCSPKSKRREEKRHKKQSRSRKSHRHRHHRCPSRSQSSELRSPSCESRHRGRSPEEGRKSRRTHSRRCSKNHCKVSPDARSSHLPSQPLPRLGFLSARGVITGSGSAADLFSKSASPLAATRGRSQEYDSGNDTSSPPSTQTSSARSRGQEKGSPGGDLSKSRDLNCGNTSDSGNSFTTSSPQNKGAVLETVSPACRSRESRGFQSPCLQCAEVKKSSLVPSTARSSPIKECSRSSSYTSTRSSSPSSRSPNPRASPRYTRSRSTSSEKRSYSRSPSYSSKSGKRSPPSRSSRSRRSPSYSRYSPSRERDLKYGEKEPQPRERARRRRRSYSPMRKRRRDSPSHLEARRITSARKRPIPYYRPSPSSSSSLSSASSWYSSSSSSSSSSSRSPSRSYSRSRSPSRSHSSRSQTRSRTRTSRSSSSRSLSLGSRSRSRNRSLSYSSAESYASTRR", "assay": "AP-MS nSR100 interaction partners from mouse N2A cells (Table 5)", "type": "binding", "details": "for AvgP (average of the SAINT scores) / MaxP (maximal SAINT score): bait Srrm4; for FoldChange between the prey Avg spectra of the bait and control purifications: bait Srrm4, 0.1 added to prevent division by 0; for AvgSpec (average number of spectra per replicate): bait Srrm4, 2 replicates; for Spectra (number of spectra for the prey in the purification of the bait): AP-MS; for SpecSum: bait Srrm4, sum of spectra over 2 replicates", "key": {"[1]": {"details": "bait Srrm4, biological replicate 1 (first number of the cell)"}, "[2]": {"details": "bait Srrm4, biological replicate 2 (second number of the cell)"}}, "text": "By applying affinity purification coupled to mass-spectrometry (AP-MS), several interaction nSR100 partner proteins were detected that provide insight into mechanisms of post-translational regulation of nSR100 levels.", "data": [{"molecule": "B1", "values": [{"measurement": "AvgP (average of the SAINT scores)", "result": 0.87}, {"measurement": "MaxP (maximal SAINT score)", "result": 0.87}, {"measurement": "FoldChange between the prey Avg spectra of the bait and control purifications", "result": 3.33}, {"measurement": "AvgSpec (average number of spectra per replicate)", "result": 10}, {"measurement": "Spectra (number of spectra for the prey in the purification of the bait)", "setting": "[1]", "result": "10|10"}, {"measurement": "Spectra (number of spectra for the prey in the purification of the bait)", "setting": "[2]", "result": "10|10"}, {"measurement": "SpecSum", "result": 20}]}, {"molecule": "B2", "values": [{"measurement": "AvgP (average of the SAINT scores)", "result": 0.91}, {"measurement": "MaxP (maximal SAINT score)", "result": 0.96}, {"measurement": "FoldChange between the prey Avg spectra of the bait and control purifications", "result": 7}, {"measurement": "AvgSpec (average number of spectra per replicate)", "result": 7}, {"measurement": "Spectra (number of spectra for the prey in the purification of the bait)", "setting": "[1]", "result": 6}, {"measurement": "Spectra (number of spectra for the prey in the purification of the bait)", "setting": "[2]", "result": 8}, {"measurement": "SpecSum", "result": 14}]}, {"molecule": "B3", "values": [{"measurement": "AvgP (average of the SAINT scores)", "result": 0.9}, {"measurement": "MaxP (maximal SAINT score)", "result": 0.98}, {"measurement": "FoldChange between the prey Avg spectra of the bait and control purifications", "result": 3.43}, {"measurement": "AvgSpec (average number of spectra per replicate)", "result": 12}, {"measurement": "Spectra (number of spectra for the prey in the purification of the bait)", "setting": "[1]", "result": 13}, {"measurement": "Spectra (number of spectra for the prey in the purification of the bait)", "setting": "[2]", "result": 11}, {"measurement": "SpecSum", "result": 24}]}, {"molecule": "B4", "values": [{"measurement": "AvgP (average of the SAINT scores)", "result": 1}, {"measurement": "MaxP (maximal SAINT score)", "result": 1}, {"measurement": "FoldChange between the prey Avg spectra of the bait and control purifications", "result": 40}, {"measurement": "AvgSpec (average number of spectra per replicate)", "result": 4}, {"measurement": "Spectra (number of spectra for the prey in the purification of the bait)", "setting": "[1]", "result": 5}, {"measurement": "Spectra (number of spectra for the prey in the purification of the bait)", "setting": "[2]", "result": 3}, {"measurement": "SpecSum", "result": 8}]}, {"molecule": "B5", "values": [{"measurement": "AvgP (average of the SAINT scores)", "result": 0.89}, {"measurement": "MaxP (maximal SAINT score)", "result": 1}, {"measurement": "FoldChange between the prey Avg spectra of the bait and control purifications", "result": 5.5}, {"measurement": "AvgSpec (average number of spectra per replicate)", "result": 11}, {"measurement": "Spectra (number of spectra for the prey in the purification of the bait)", "setting": "[1]", "result": 7}, {"measurement": "Spectra (number of spectra for the prey in the purification of the bait)", "setting": "[2]", "result": 15}, {"measurement": "SpecSum", "result": 22}]}]}
